Source: patent CN116836268A (BEIJING WISDOMAB BIOTECHNOLOGY CO LTD, dated 2023)

Target: Cov-S-RBD-His (SARS-CoV-2, UniProt P0DTC2 319-537)

B1: S4B3-mIgG2a (antibody, V domains shown)
VH: QVQLQQSGAELVKPGASVKMSCKASGYIFNSYSIHWVKKTPGQGLEWIGAIYPGNGDTSNSQRFKGKATLTADKSSSTVYMQLSRLTSEDSAVYYCARDGYDDSYGLDYWGQGTSVTVSS
VL: DIVMTQSQKFMSTSVGDRVSVTCKASQNVGTNVAWYQQKPGQSPKALIYSASYRYSGVPDRFTGSGSGTDFTLTISNVQSEDLAEYFCQQYNSYPLTFGGGTKLEIKR
Binder B1 has a Kd of 22.8 nM.
